Earlier results, collected in article PMC12188480.

Molecular target: c-MET (Homo sapiens) (UniProt P08581)
Sequence (P08581 25-932): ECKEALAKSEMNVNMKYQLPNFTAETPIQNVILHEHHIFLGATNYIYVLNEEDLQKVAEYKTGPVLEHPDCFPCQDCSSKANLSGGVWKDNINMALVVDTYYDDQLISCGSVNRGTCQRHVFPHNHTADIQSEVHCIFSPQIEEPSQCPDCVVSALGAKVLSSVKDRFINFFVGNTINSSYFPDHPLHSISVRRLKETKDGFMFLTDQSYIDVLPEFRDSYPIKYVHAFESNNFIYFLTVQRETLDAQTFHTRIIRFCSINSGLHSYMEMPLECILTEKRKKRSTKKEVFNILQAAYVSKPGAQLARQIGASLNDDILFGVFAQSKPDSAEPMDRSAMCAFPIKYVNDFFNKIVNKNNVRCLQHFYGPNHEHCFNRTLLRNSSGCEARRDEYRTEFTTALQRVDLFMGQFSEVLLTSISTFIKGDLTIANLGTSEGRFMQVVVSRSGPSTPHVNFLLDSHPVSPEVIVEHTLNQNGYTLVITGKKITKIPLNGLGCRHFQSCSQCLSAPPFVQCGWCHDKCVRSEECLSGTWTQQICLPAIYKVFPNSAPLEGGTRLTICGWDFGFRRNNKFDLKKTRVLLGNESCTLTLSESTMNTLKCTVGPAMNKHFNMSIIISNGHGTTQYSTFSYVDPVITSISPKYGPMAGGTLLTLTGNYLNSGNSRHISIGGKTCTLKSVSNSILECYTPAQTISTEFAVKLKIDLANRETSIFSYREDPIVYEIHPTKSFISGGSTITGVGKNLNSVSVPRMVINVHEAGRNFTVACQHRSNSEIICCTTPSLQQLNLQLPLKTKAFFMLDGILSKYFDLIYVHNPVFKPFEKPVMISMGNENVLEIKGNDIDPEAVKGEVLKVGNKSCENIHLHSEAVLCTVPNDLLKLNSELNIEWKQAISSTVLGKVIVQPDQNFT

For onartuzumab, which Kd is on record?
Its Kd is 1.2 nM.
